Reference: article PMC8371249

Tests used:
[1] = target: holo-SufR (Mtb SufR, Rv1460, with its 4Fe–4S cluster) (Mycobacterium tuberculosis); test: SEC
[2] = target: apo-SufR (clusterless Mtb SufR, Rv1460) (Mycobacterium tuberculosis); test: SEC

holo-SufR (Mtb SufR, Rv1460, with its 4Fe–4S cluster) (natural protein)
stoichiometry N [1]: 2

apo-SufR (clusterless Mtb SufR, Rv1460) (natural protein)
stoichiometry N [2]: 2
